Data published in US20080009025A1, “PROTEIN KINASE REGULATION” (priority 1999, published 2008).
Where a SMILES comes first, the peptide text is derived from it.

Columns and labels:
[1] = target: T1, PDK1 (Homo sapiens, UniProt O15530); experiment: PDK1 activity towards synthetic peptide substrates T308tide or PDKtide; format: biochemical
T1 construct: Full length PDK1 (residues 1-556); made in house; host or cells: 293 cells
T1 sequence (O15530 52-556): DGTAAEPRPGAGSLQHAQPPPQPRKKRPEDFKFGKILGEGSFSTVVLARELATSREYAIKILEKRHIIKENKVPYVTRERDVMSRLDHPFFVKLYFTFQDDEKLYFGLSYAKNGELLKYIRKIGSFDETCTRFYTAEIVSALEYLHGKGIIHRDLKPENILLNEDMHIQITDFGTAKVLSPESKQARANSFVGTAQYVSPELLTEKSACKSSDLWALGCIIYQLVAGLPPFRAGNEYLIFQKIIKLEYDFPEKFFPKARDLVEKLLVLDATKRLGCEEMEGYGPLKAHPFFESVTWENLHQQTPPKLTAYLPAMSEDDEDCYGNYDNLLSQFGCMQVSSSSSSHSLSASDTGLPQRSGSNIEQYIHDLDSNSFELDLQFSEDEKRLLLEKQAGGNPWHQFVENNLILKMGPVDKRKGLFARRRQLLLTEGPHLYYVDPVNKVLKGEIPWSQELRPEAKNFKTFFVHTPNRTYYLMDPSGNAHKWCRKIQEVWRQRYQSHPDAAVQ
Protocol: FIG. 12. PDK1 is activated and stabilised through its interaction with PIFtide. (A) GST-PDK1 activity was measured in the presence of increasing concentrations of wild type (wt) PIFtide (closed circles) or a mutant D978A PIFtide (open circles) using the synthetic peptide substrate termed T308tide, as described in Material and Methods. The data was fitted to a hyperbola using the Kaleidagraph™ software. The connection needed to obtain 50% activation of PDK1 was […] for wt-PIFtide and 1.1 μM for D978A-PIFtide. The assay shown was performed in triplicate and there was less than 5% difference between each assay. Similar results were obtained in 2 further experiments (B)—The wild type GST-PDK1 (circles) or the L155D mutant of GST-PDK1 (squares) was incubated in the presence (closed symbols) or absence (open symbols) of […] PIFtife and then for 2 min at the indicated temperatures, rapidly brought to 0° C. (see Materials and Methods), and 2 min later assayed at 30° C. for 10 min using T308tide as substrate. The activity of PDK1 obtained by incubation at 30° C. was taken as 100%. The assay shown was performed in duplicate with similar results obtained in two separate experiments.
FIG. 14. […] (A) His-PDK1 was assayed for activity using as substrate the indicated concentration of either PDKtide (open triangles) or T308tide (open circles). (B) HIS-PDK1 was assayed for activity in the presence if PDKtide (25 μM closed triangles) or T308tide (100 μM closed circles) in the presence of the indicated concentrations of PIFtide. The assay was performed in triplicates with less than 5% difference between the triplicate samples. Similar results were obtained in 3 separate experiments.
PDK1's ability to phosphorylate Thr308 of PKBα was measured using a mutant of GST-PKBα in which Ser473 was mutated to Asp (GST-473D PKBα) in the presence of phospholipid vesicles containing sn-1-stearoyl-2-arachidonoyl-D-PtdIns (3, 4, 5)P3 [13]. The ability of wild type and mutant PDK1 to phosphorylate the synthetic peptides T308tide or PDKtide was carried out in 20 μl assays containing 50 mM Tris/HCl pH 7.5, 0.1% 2-mercaptoethanol 10 mM MgCl2, 100 μM [γ^32P]ATP (˜500 cpm/pmol) 0.5 μM microcystin-LR.PDK1 and the peptide concentrations indicated under Results. After incubation for 10 min at 30° C. the reaction was stopped by addition of 20 μl of 150 mM phosphoric acid. 35 μl of the resultant mixture was spotted into P81 phosphocellulose paper (2×2 cm) and the papers washed and analysed as described previously for assays of MAP kinase. […] Control assays were carried out in parallel in which either PDK1, or peptide substrate were omitted; these values were always less than 5% of the activity measured in the presence of these reagents. […]

[2] = target: T2, PDK1 (Homo sapiens, UniProt O15530); experiment: Glutathione-Sepharose pull-down of PDK1 with S6K1 or SGK1 from 293 cells; format: binding; set-up: Full length PDK1 (residues 1-556); made in house; host or cells: 293 cells; conditions: Flag-tagged S6K1 forms; wild type GST-PDK1
T2 sequence (O15530 1-556): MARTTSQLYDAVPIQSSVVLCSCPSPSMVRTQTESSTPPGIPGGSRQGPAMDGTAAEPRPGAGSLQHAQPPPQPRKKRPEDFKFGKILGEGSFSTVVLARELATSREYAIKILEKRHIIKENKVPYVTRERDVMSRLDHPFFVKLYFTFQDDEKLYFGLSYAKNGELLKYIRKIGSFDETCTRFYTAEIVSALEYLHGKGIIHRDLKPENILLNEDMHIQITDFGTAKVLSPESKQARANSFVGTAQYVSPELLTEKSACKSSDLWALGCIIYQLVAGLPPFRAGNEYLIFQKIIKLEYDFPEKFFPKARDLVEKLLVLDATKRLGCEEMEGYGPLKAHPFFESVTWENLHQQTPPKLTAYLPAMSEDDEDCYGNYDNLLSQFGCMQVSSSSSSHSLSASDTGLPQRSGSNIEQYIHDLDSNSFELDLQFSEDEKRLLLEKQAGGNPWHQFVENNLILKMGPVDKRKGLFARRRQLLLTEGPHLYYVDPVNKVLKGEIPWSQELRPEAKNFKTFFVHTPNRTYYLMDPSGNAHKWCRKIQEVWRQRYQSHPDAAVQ
Protocol: FIG. 21. Interaction of S6K1 and SGK1 with PDK1. 293 cells were transiently transfected with DNA constructs expressing GST, GST-PDK1 wt or PDK1 L155E together with constructs expressing either wild type or the indicated mutants or truncations of HA tagged S6K1 (A) or wild type GST-ΔN-SGK1 or 422D mutant. 36 h post transfection the cells were lysed and GST fusion protein was purified by affinity chromatography on glutathione-Sepharose beads. Aliquots were electrophoresed on a 10% SDS-polyacrylamide gel, stained with Coomassie Blue, or immunoblotted using an anti-FLAG antibody to detect FLAG-S6K1 and anti-Myc antibody to detect Myc-PDK1. To establish that the wild type and mutant proteins were expressed at similar levels, […] of total lysate was electrophoresed on a 10% SDS-polyacrylamide gel and immunoblotted using the indicated antibodies. Duplicates of each condition are shown. Similar results were obtained in two different experiments.
Binding of PDK1 to SGK1 and S6K1. For the data presented in FIG. 22, 293 cells were cotransfected with 10 μg of the wild type or mutant PDK1 plasmid and 10 μg of either the wild type or mutant S6K1 or SGK1. […] The gels were either stained with Coomassie blue, or analysed by immunoblotting with either anti-Flag or anti-Myc antibodies (described below).

[3] = target: T2, PDK1; experiment: Yeast two-hybrid interaction with PDK1; format: binding; set-up: expressed in transfected cells; host or cells: Saccharomyces cerevisiae strain Y190; conditions: wild type PDK1
[4] = system: PDK1; experiment: Yeast two-hybrid interaction with PDK1; format: binding, human; conditions: PDK1 L155 mutants

Compound: KTFCGTPEYLAPEVRREPRILSEEEQEMFRDFDYLADWC [PDKtide, 39 amino acid polypeptide composed of T308tide fused to PIFtide]
- rate of phosphorylation by PDK1 relative to T308tide ([1]; assayed at 100 μM): over 100 fold

Compound: full length S6K1[T412E]: Flag epitope tagged full length S6K1 with Thr412 to Glu
- interaction with GST-PDK1 [2]: failed to interact

Compound: CC(C)C[C@H](NC(=O)[C@H](Cc1ccc(O)cc1)NC(=O)[C@H](CCC(=O)O)NC(=O)[C@@H]1CCCN1C(=O)[C@@H](NC(=O)CNC(=O)[C@H](CS)NC(=O)[C@H](Cc1ccccc1)NC(=O)[C@@H](NC(=O)[C@@H](N)CCCCN)[C@@H](C)O)[C@@H](C)O)C(=O)N[C@@H](C)C(=O)N1CCC[C@H]1C(=O)N[C@@H](CCC(=O)O)C(=O)N[C@H](C(=O)N[C@@H](CCCNC(=N)N)C(=O)N[C@@H](CCCNC(=N)N)C(=O)O)C(C)C [T308tide, KTFCGTPEYLAPEVRR, reference compound] (H-KTFCGTPEYLAPEVRR-OH)
- Km ([1]; read-out: Km of PDK1 for peptide substrate): > 10 mM

Compound: PKACT: C-terminal fragment of PKA composed of residues 129-350
- two-hybrid interaction with full length PDK1 [3]: positive interaction
- two-hybrid interaction with L155S, L155D or L155E mutants of PDK1 [4]: greatly reduced

Compound: full length S6K1: Flag epitope tagged full length S6K1
- interaction with GST-PDK1 [2]: failed to interact
